Consider one substance from US20250136673A1.

This test deals with recombinant human VEGF (R&D Systems, 293-VE-010) (human) (UniProt P15692). Briefly: Octet HTX biosensor kinetics; antibody at 10 ug/mL in 1x kinetics buffer; recombinant human VEGF 200 nM to 3.125 nM. In general terms: BLI is a label-free optical method that tracks binding on a fibre tip over time.
Sequence of UniProt P15692 (P15692 other isoform, or with tags, fused parts or gaps limits assumed): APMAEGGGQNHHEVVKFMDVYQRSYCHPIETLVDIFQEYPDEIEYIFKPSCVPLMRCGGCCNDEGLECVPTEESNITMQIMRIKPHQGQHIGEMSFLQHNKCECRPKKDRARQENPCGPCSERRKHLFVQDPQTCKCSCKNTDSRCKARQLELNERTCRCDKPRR

The term Kd denotes the equilibrium constant for the complex coming apart. The koff is the first-order rate constant of dissociation. As usually defined, the kon is the rate constant with which the complex forms. On to “mouse anti-human VEGF monoclonal antibody (anti-hVEGF MmAb; R&D Systems, MAB293-100)”, for which the dissociation constant (Kd) is 229 pM, the koff is 7.77e-05 s⁻¹ and the kon was 340000 M⁻¹ s⁻¹.
